Experimental data from US20240409935.

T1: GFP-PACT, O75569
T1 chain: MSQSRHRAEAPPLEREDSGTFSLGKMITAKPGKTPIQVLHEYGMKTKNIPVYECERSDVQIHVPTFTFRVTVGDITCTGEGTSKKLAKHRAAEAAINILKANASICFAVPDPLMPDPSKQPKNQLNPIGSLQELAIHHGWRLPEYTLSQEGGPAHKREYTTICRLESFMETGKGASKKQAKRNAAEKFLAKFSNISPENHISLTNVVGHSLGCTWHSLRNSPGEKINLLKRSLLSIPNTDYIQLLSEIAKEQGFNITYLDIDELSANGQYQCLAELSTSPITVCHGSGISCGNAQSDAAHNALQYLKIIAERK

T2: endogenous PACT, O75569
T2 chain: T1 chain

B1: endogenous PKR (protein)
chain: AGDLSAGFFMEELNTYRQKQGVVLKYQELPNSGPPHDRRFTFQVIIDGREFPEGEGRSKKEAKNAAAKLAVEILNKEKKAVSPLLLTTTNSSEGLSMGNYIGLINRIAQKKRLTVNYEQCASGVHGPEGFHYKCKMGQKEYSIGTGSTKQEAKQLAAKLAYLQILSEETSVKSDYLSSGSFATTCESQSNSLVTSTLASESSSEGDFSADTSEINSNSDSLNSSSLLMNGLRNNQRKAKRSLAPRFDLPDMKETKYTVDKRFGMDFKEIELIGSGGFGQVFKAKHRIDGKTYVIKRVKYNNEKAEREVKALAKLDHVNIVHYNGCWDGFDYDPETSDDSLESSDYDPENSKNSSRSKTKCLFIQMEFCDKGTLEQWIEKRRGEKLDKVLALELFEQITKGVDYIHSKKLIHRDLKPSNIFLVDTKQVKIGDFGLVTSLKNDGKRTRSKGTLRYMSPEQISSQDYGKEVDLYALGLILAELLHVCDTAFETSKFFTDLRDGIISDIFDKKEKTLLQKLLSKKPEDRPNTSEILRTLTVWKKSPEKNERHTC
B2: FLAG-PKR (protein)
chain: MAGDLSAGFFMEELNTYRQKQGVVLKYQELPNSGPPHDRRFTFQVIIDGREFPEGEGRSKKEAKNAAAKLAVEILNKEKKAVSPLLLTTTNSSEGLSMGNYIGLINRIAQKKRLTVNYEQCASGVHGPEGFHYKCKMGQKEYSIGTGSTKQEAKQLAAKLAYLQILSEETSVKSDYLSSGSFATTCESQSNSLVTSTLASESSSEGDFSADTSEINSNSDSLNSSSLLMNGLRNNQRKAKRSLAPRFDLPDMKETKYTVDKRFGMDFKEIELIGSGGFGQVFKAKHRIDGKTYVIKRVKYNNEKAEREVKALAKLDHVNIVHYNGCWDGFDYDPETSDDSLESSDYDPENSKNSSRSKTKCLFIQMEFCDKGTLEQWIEKRRGEKLDKVLALELFEQITKGVDYIHSKKLIHRDLKPSNIFLVDTKQVKIGDFGLVTSLKNDGKRTRSKGTLRYMSPEQISSQDYGKEVDLYALGLILAELLHVCDTAFETSKFFTDLRDGIISDIFDKKEKTLLQKLLSKKPEDRPNTSEILRTLTVWKKSPEKNERHTC

Columns and labels:
GFP-PACT, O75569 = target: T1, GFP-PACT, O75569
endogenous PACT, O75569 = target: T2, endogenous PACT, O75569

Row | Protein | PKR phosphorylation (GFP-PACT, O75569) | PKR phosphorylation (endogenous PACT, O75569)
1 | B1 | this was accompanied by an increase in PKR phosphorylation during lysosomal damage | –
2 | B2 | – | increased PKR phosphorylation under the same conditions
